B1: GST-Vif_(IIIB) (natural protein)
chain: not shown
B2: GST-Vif_(HXB2) (natural protein)
chain: not shown

Biological target: APOBEC3G, fluorescein-labelled (F-A3G) (human, UniProt Q9HC16 1-384, fluorescein (Fluorescein-EX Protein Labeling kit), sites not stated)
Test: fluorescence polarisation

Sequence of APOBEC3G, fluorescein-labelled (F-A3G) (Q9HC16 whole entry): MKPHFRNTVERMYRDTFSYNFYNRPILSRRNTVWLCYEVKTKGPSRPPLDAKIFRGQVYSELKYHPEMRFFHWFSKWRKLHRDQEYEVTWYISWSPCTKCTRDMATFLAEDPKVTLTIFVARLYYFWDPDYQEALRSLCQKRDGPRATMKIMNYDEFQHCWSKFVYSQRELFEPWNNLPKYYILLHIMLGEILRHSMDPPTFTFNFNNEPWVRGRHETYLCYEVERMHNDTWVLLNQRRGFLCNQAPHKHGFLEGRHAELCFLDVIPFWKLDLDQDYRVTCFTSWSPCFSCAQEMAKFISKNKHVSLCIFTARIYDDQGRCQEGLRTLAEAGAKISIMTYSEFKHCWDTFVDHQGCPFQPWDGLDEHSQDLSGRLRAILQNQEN

| Binder | Kd [nM] |
| --- | --- |
| B1 | 78 |
| B2 | 90 |
